Experimental findings from article PMC4188734 (Journal of molecular biology, 2014) are described below.

Like-named read-outs stand apart in the source and are kept apart here.

The labels stand for the following.
B1: OS-9 CTE (589–666) (domain or fragment, rat, UniProt Q5RKH6 589-666, looked up)
chain: KIEIKIVRPGAEGKEEDTRWLTDEDTRNLKEIFFNILVQGAEEANKERQRQSELESNYRRVWGSPGGEDTGDLDEFDF
B2: OS-9 ΔMRH (267–666) (domain or fragment, rat, UniProt Q5RKH6 267-666, looked up)
chain: QHEEKVTEEVQDTDHQVWSGSKAAGAPPKKEDVSPTKEDKESEFWKMLQEPEEQATGTEEAQAGEQDLNHEAAADPAPAPPTDFQNNVQVKLIRSPADLIRLIEELKGAEKGKPSVRQEQPGDDTTEAPQREAEAKGKGGEPRGLVEEEDGDEEEEDEDEDEQQLLGEFEKELEGMLLPSDRERLRSEVKAGMERELENIIQETEKELDPEGLRKESEREQAILALTSTLDKLIKRLQESQSPELVQKYKKRRVVPQKPPPSPHPTEEEPEHRVRVRVTKLRHGGPNQDLTVLEMNRENPQLKQIEGLVTEVLEREGLTAEGKIEIKIVRPGAEGKEEDTRWLTDEDTRNLKEIFFNILVQGAEEANKERQRQSELESNYRRVWGSPGGEDTGDLDEFDF
B3: Grp94 MC domains (protein)
chain: NDIKPIWQRPSKEVEDDEYKAFYKSFSKESDDPMAYIHFTAEGEVTFKSILFVPTSAPRGLFDEYGSKKSDYIKLYVRRVFITDDFHDMMPKYLNFVKGVVDSDDLPLNVSRETLQQHKLLKVIRKKLVRKTLDMIKKIADEKYNDTFWKEFGTNIKLGVIEDHSNRTRLAKLLRFQSSHHPSDITSLDQYVERMKEKQDKIYFMAGSSRKEAESSPFVERLLKKGYEVIYLTEPVDEYCIQALPEFDGKRFQNVAKEGVKFDESEKTKESREAIEKEFEPLLNWMKDKALKDKIEKAVVSQRLTESPCALVASQYGWSGNMERIMKAQAYQTGKDISTNYYASQKKTFEINPRHPLIKDMLRRVKEDEDDKTVSDLAVVLFETATLRSGYLLPDTKAYGDRIERMLRLSLNIDPDAKVEEEPEEEPEE
B4: Grp94 M domain (protein)
chain: NDIKPIWQRPSKEVEDDEYKAFYKSFSKESDDPMAYIHFTAEGEVTFKSILFVPTSAPRGLFDEYGSKKSDYIKLYVRRVFITDDFHDMMPKYLNFVKGVVDSDDLPLNVSRETLQQHKLLKVIRKKLVRKTLDMIKKIADEKYNDTFWKEFGTNIKLGVIEDHSNRTRLAKLLRFQSSHHPSDITSLDQYVERMKEKQDKIYFMAGSSRKEAESSPFVERLLKKGYEVIYLTEPVDEYCIQALPEFDGKRFQNVAKE
B5: Grp94 C domain (protein)
chain: EGVKFDESEKTKESREAIEKEFEPLLNWMKDKALKDKIEKAVVSQRLTESPCALVASQYGWSGNMERIMKAQAYQTGKDISTNYYASQKKTFEINPRHPLIKDMLRRVKEDEDDKTVSDLAVVLFETATLRSGYLLPDTKAYGDRIERMLRLSLNIDPDAKVEEEPEEEPEE
B6: Grp94-C (601–754) (domain or fragment, canine, UniProt P41148 601-754, looked up)
chain: SEKTKESREAIEKEFEPLLNWMKDKALKDKIEKAVVSQRLTESPCALVASQYGWSGNMERIMKAQAYQTGKDISTNYYASQKKTFEINPRHPLIKDMLRRVKEDEDDKTVSDLAVVLFETATLRSGYLLPDTKAYGDRIERMLRLSLNIDPDAK

What all share (assay): ITC
Background: In ITC the heat of successive injections is recorded.

Assay [1] addresses T1, His-Grp94-MC (337–765) (canine, UniProt P41148 337-765).
A further assay addresses Grp94-M (337–594) (canine, UniProt P41148 337-594).
In the assay “Grp94-C (601–754)” the target is B6.
In assay [2] the target is T1, His-Grp94-MC (337–765). The source holds these as a separate data set.
The target in another assay is T2, OS-9 CTE (Homo sapiens, UniProt Q13438).
T2 chain: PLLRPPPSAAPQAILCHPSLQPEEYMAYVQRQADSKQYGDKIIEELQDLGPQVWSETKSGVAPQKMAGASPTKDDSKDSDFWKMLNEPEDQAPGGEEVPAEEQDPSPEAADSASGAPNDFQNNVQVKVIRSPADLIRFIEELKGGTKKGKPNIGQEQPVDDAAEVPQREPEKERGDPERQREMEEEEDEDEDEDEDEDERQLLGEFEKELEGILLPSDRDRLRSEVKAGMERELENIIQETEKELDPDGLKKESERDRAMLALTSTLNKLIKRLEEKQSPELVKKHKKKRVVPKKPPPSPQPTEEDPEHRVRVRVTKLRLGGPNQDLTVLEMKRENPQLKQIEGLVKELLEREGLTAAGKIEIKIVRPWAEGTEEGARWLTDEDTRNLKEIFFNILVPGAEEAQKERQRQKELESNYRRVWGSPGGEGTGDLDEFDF

The target in the assay “OS-9 ΔMRH (267–666)” is B2.
Another assay concerns the target T3, OS-9 ΔMRH (Homo sapiens, UniProt Q13438).
T3 chain: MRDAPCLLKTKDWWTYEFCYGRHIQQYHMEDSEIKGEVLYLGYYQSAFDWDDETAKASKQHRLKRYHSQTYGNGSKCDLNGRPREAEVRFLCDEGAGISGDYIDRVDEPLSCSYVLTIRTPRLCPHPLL

In general, Kd refers to the equilibrium constant for the complex coming apart. In the case of B1, in the assay with His-Grp94-MC (337–765) [1], the affinity, expressed as Kd, was 22.4 ± 2 µM; the dH was -11.6 ± 1 kcal/mol; the “stoichiometry N” value is 2.7 ratio of Grp94 dimer to the OS-9 hexamer. For the same molecule, in the assay with Grp94-M (337–594), the Kd came to 14.3 ± 2.1 µM, the dH was -9.1 ± 1 kcal/mol and the “stoichiometry N” value was 3.4 ratio of Grp94 monomer to the OS-9 hexamer. In the assay with Grp94-C (601–754), binding was characterised by a dissociation constant (Kd) of 15 ± 1.1 µM, the dH is -33 ± 1.7 kcal/mol and the “stoichiometry N” value is 2.9 ratio of Grp94 dimer to the OS-9 hexamer.
Turning to B2, in the assay with His-Grp94-MC (337–765) [2], the Kd is 8.4 ± 2.3 µM.
For B3, binding with OS-9 CTE was characterised by a dissociation constant (Kd) of 22 µM. In the assay with OS-9 ΔMRH (267–666), the dH is -7.2 ± 2.3 kcal/mol and the “stoichiometry N” value is 0.15 ratio of Grp94 dimer to the OS-9 hexamer.
For the molecule B4, the figures for the Kd with OS-9 ΔMRH, with OS-9 CTE and with OS-9 ΔMRH (267–666) were 25 µM, 14 µM and 25.4 ± 2.6 µM, respectively. The dH with OS-9 ΔMRH (267–666) was -3.3 ± 0.1 kcal/mol. Also, the “stoichiometry N” value with OS-9 ΔMRH (267–666) was 2.8 ratio of Grp94 monomer to the OS-9 hexamer.
Turning to B5, in the assay with OS-9 ΔMRH, the affinity, expressed as Kd, was 24 µM. This counts as double-digit micromolar.
As for B6, in the assay with OS-9 ΔMRH (267–666), binding was characterised by a dissociation constant (Kd) of 24.6 ± 1.7 µM, the dH is -14 ± 0.7 kcal/mol and the “stoichiometry N” value is 1 ratio of Grp94 dimer to the OS-9 hexamer.
